Measured values as given in patent US11168306B2, “Phage wrapping” (priority 2014, dated 2021).
Ends that are not written are not given here.

How the values were obtained:
PSMA dimer = PSMA dimer (Homo sapiens, UniProt Q04609); test: Phage-based ELISA, binding to PSMA dimer
Procedure: In a phage-based ELISA, specific wells of a 96-well microtiter plate (Nunc Maxisorp) were coated with 100 μL/well of a solution of PSMA (5.56 or 11.1 nM) monomer or dimer protein diluted in PBS. The plate was incubated for 1 h on a shaker at room temperature. The coating solution was removed, and the wells were blocked with 320 μL/well of 0.2% w/v solution of BSA in PBS for 30 min, and washed three times with 300 μL/well of wash buffer PT (0.05% TWEEN-20 in PBS). […] The wells on the ELISA plate were then incubated with the phage samples (100 μL/well) for 1 h. The wells were washed five times with PT and then incubated with horseradish-peroxidase-conjugated anti-M13 antibody (100 μL/well, 1:5000 dilution in PBT) for 30 min. The wells were washed three times with PT, and two times with PBS. […] Following an appropriate incubation time, HRP activity was measured spectrophotometrically at 450 nm using a microtiter plate reader (Bio-Tek).
Phage-based wrapping ELISA: Phage (5 nM in 225 μL) and 2 μL of the purified cycloaddition reaction product, KCS-1/2 (308.7 μM) in water: acetonitrile (60:40), were mixed and serially diluted in PBT. […] Levels of phage binding were quantified as described above.

PSMA = PSMA (Homo sapiens, UniProt Q04609); test: Electrochemical impedance biosensing with virus-PEDOT films; type: binding; conditions: PBF-TWEEN
Chain of PSMA (Q04609 44-750): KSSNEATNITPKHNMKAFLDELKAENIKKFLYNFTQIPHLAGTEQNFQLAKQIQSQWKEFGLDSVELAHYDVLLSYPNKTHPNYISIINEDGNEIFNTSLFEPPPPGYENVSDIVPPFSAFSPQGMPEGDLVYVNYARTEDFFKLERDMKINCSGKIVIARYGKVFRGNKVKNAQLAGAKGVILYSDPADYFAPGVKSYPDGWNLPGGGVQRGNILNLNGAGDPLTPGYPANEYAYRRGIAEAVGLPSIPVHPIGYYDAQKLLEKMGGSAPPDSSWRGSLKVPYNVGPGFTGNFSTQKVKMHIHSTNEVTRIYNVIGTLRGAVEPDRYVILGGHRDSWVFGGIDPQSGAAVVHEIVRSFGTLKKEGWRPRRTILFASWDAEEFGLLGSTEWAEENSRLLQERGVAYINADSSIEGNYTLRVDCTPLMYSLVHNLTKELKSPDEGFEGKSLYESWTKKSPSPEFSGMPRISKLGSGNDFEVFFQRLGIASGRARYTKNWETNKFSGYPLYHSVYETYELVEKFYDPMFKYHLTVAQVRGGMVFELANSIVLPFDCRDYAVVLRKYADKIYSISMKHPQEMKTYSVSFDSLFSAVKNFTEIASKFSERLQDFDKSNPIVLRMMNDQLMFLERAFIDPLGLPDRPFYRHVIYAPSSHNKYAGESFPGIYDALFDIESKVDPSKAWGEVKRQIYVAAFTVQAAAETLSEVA
Procedure: Biosensing with Virus-PEDOT Films. To explore whether these wrapped virus particles could be exploited to create virus-electrode biosensors with a higher sensitivity for PSMA, films of PEDOT were prepared on gold electrodes by electropolymerization in the presence of phage-2 (FIG. 28). […] SEM imaging confirms incorporation of phage into the bioaffinity matrix; both filament-like and less extended features having dimensions consistent with phage integrated as rope-like bundles into the polymer at various angles to the film (FIGS. 4B-4C) were observed. The KCS-1 wrapper was then applied in vitro simply by exposing the resultant phage-2 film for a short time to an aqueous solution of the wrapper. For the biosensing measurements, only the highest affinity ligand combination of phage-2 wrapped with KCS-1 was used, and it was studied in comparison to phage-2 films.
EIS To Quantify PSMA Binding. […] The real component of the impedance, R, in particular, increases upon PSMA binding. […] The films incorporating phage-2 wrapped with KCS-1 provide higher sensitivity for PSMA detection than films incorporating unwrapped phage-2 (FIG. 4F). For example, the relative impedance change, ΔR/Ro, at each concentration of PSMA is 3-fold higher. […]

Solubility in water = type: physicochemical; conditions: previous studies

Chain of PSMA dimer (Q04609 44-750 limits assumed): as the sequence (Q04609 44-750) above

Substance | increase in apparent affinity to PSMA versus other wrapper concentrations (PSMA dimer; 2.7 μM KCS-1, FIG. 7) [%] | binding to PSMA by PEDOT film (negative controls) (PSMA) | solubility in water (Solubility in water) | relative binding affinity to PSMA dimer (PSMA dimer; phage-based ELISA)
KCS-1: chemically synthesized wrapper: K14 oligolysine click-linked to PSMA ligand 1 (peptide 1 KKKKKKKKKKKKKK; peptide 2 KKKCALCEFLG; cysteine pairing not given here; also: K14 oligolysine click-linked to PSMA ligand 1) | ~15 | no significant binding to PSMA | – | –
peptide 1: PSMA-binding peptide ligand, amino acid sequence CALCEFLG (SEQ ID NO: 1) | – | – | limited solubility in water | much lower apparent affinity for PSMA than peptide 2
